Source: patent US20030143232

Assays:
[1] = molecular target: recombinant survivin(T34A) (UniProt O15392)
[2] = molecular target: recombinant wild type survivin (unphosphorylated) (UniProt O15392)
Sequence of recombinant wild type survivin (unphosphorylated) (O15392 whole entry, looked up): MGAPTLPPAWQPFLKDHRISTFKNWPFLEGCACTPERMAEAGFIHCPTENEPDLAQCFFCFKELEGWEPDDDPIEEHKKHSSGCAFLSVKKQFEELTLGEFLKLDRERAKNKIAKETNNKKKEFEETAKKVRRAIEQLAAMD

Sequence of recombinant survivin(T34A) (O15392 whole entry T34A): as the sequence (O15392 whole entry, looked up) above, with T34A counted along it

Substance | in vitro kinase assay, 32P autoradiography [1] | in vitro kinase assay, 32P autoradiography [2]
baculovirus-expressed human p34^cdc2-cyclin B1 kinase complex | substitution of Thr^34→Ala, i.e. survivin(T34A), abolished phosphorylation by p34^cdc2-cyclin B1 | baculovirus-expressed p34^cdc2-cyclin B1 readily phosphorylated recombinant wild type survivin
baculovirus-expressed human Cdk2-cyclin E kinase complex | baculovirus-expressed Cdk2-cyclin E did not phosphorylate wild type survivin or survivin(T34A) | baculovirus-expressed Cdk2-cyclin E did not phosphorylate wild type survivin or survivin(T34A)
